Experimental data as given in the supplement of paper PMC7877785.
± gives the uncertainty stated by the source.

Assay: self-splicing fitness, log relative to wild type (ln ratio); higher = more splicing; Tetrahymena group I intron in knt gene, E. coli kanamycin selection, DiMSum; sequences stand for … in CUCUCU…GGAGGGAAAAGUUAUCAGGCAUGCACCUGGUAGCUAGUCUUUAAACCAAUAGAUUGCAUCGGUUUAAAAGGCAAGACCGUCAAAUUGCGGGAAAGGGGUCAACAGCCGUUCAGUACCAAGUCUCAGGGGAAACUUUGAGAUGGCCUUGCAAAGGGUAUGGUAAUAAGCUGACGGACAUGGUCCUAACCACGCAGCCAAGUCCUAAGUCAACAGAUCUUCUGUUGAUAUGGAUGCAGUUCACAGACUAAAUGUCGGUCGGGGAAGAUGUAUUCUUCUCAUAAGAUAUAGUCGGACCUCUCCUUAAUGGGAGCUAGCGGAUGAAGUGAUGCAACACUGGAGCCGCUGGGAACUAAUUUGUAUGCGAAAGUAUAUUGAUUAGUUUUGGAGUACUCGUGGUCG
Outline: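 Fitness was computed with DiMSum as the error-weighted combination of replicate fold changes, kanamycin versus none, each normalised to wild type. The library randomised all eight intron nucleotides of the P1ex region, with the intron placed in the knt kanamycin-resistance gene on pET-22b(+) in E. coli BL21(DE3). Six replicate transformations were grown overnight at 37°C or 30°C on LB agar with or without 25 μg/mL kanamycin, plus 100 μg/mL carbenicillin, 50 μM IPTG and 0.2% rhamnose. Pooled colonies were amplicon-sequenced on an Illumina HiSeq 2500.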

| Sequence | self-splicing fitness (ln) (30 °C) | self-splicing fitness (ln) (37 °C) |
| --- | --- | --- |
| GUUUAGCAAUAUUACGGUCA | -1.26 ± 0.19 | -0.326 ± 0.16 |
| UUGUAGCAAUAUUACGUCCU | -1.48 ± 0.15 | -0.583 ± 0.17 |
| GCUCAGCAAUAUUACGAUCU | -0.418 ± 0.094 | -0.185 ± 0.099 |
| UCCCAGCAAUAUUACGAAUU | -3.04 ± 0.19 | -2.27 ± 0.17 |
| UGGUAGCAAUAUUACGUGGC | -3.64 ± 0.32 | -3.04 ± 0.34 |
| UGACAGCAAUAUUACGUACU | -0.423 ± 0.064 | 0.165 ± 0.085 |
| AACGAGCAAUAUUACGCGUA | -2.19 ± 0.19 | -1.72 ± 0.18 |
| GCACAGCAAUAUUACGCUGA | -2.36 ± 0.13 | -0.362 ± 0.088 |
| ACUCAGCAAUAUUACGCUCG | -0.26 ± 0.087 | 0.176 ± 0.12 |
| AAUCAGCAAUAUUACGUCAC | -3.34 ± 0.27 | -1.93 ± 0.19 |
| CCUUAGCAAUAUUACGAGUA | -2.81 ± 0.29 | -2.42 ± 0.26 |
| CAUGAGCAAUAUUACGCUGG | -3.36 ± 0.17 | -2.58 ± 0.18 |
| UAAUAGCAAUAUUACGAAGG | -3.08 ± 0.17 | -1.6 ± 0.17 |
| AUAUAGCAAUAUUACGGAUU | -1.46 ± 0.14 | -1.26 ± 0.22 |
| UGUUAGCAAUAUUACGUUAA | -1.85 ± 0.27 | -0.838 ± 0.15 |
| ACGUAGCAAUAUUACGGCUG | -3.21 ± 0.28 | -1.83 ± 0.25 |
| CUCGAGCAAUAUUACGACCC | – | -1.61 ± 0.46 |
| UUAAAGCAAUAUUACGGCGU | -0.257 ± 0.068 | 0.33 ± 0.09 |
| CAGUAGCAAUAUUACGUAAA | -2.13 ± 0.16 | -1.61 ± 0.24 |
| AGUUAGCAAUAUUACGUCCU | 0.147 ± 0.09 | 0.0687 ± 0.091 |
| CAUUAGCAAUAUUACGGGGU | -3.26 ± 0.17 | -2.25 ± 0.17 |

| Sequence | self-splicing fitness (ln) (30 °C) | self-splicing fitness (ln) (37 °C) |
| --- | --- | --- |
| UUUCAGCAAUAUUACGCUUG | -1.3 ± 0.11 | -0.507 ± 0.11 |
| UACGAGCAAUAUUACGGGAA | -1.91 ± 0.2 | -2.85 ± 0.4 |
| GACAAGCAAUAUUACGCAAC | -2.72 ± 0.14 | -2.15 ± 0.24 |
| GAUAAGCAAUAUUACGACCC | -0.0888 ± 0.28 | -0.582 ± 0.37 |
| UUAUAGCAAUAUUACGUCCA | -1.54 ± 0.26 | -0.846 ± 0.29 |
| UCAGAGCAAUAUUACGAUGC | -3.8 ± 0.32 | -1.68 ± 0.24 |
| CAGGAGCAAUAUUACGAGGG | -3.21 ± 0.24 | -1.97 ± 0.2 |
| CAAUAGCAAUAUUACGCCUC | -3.74 ± 0.48 | -2.17 ± 0.36 |
| GUUUAGCAAUAUUACGUCUU | -0.801 ± 0.11 | -0.25 ± 0.11 |
| GAAGAGCAAUAUUACGGCUC | -1.85 ± 0.24 | -2.06 ± 0.3 |
| AUGCAGCAAUAUUACGUAUA | -2.57 ± 0.27 | -1.6 ± 0.16 |
| UAACAGCAAUAUUACGAAGU | -3.97 ± 0.17 | -3.18 ± 0.16 |
| CCAAAGCAAUAUUACGUAAA | -3.24 ± 0.11 | -2.07 ± 0.14 |
| CCCGAGCAAUAUUACGUGAU | -4.13 ± 0.28 | -2.22 ± 0.19 |
| UCACAGCAAUAUUACGACGU | -3.44 ± 0.16 | -3.53 ± 0.26 |
| UGAUAGCAAUAUUACGUUAA | -2.02 ± 0.21 | -2.15 ± 0.26 |
| GUAUAGCAAUAUUACGUCCA | -1.58 ± 0.26 | -0.506 ± 0.23 |
| AUCGAGCAAUAUUACGACGU | -0.331 ± 0.096 | 0.0461 ± 0.12 |
| AUUCAGCAAUAUUACGCGGG | -2.38 ± 0.15 | -0.332 ± 0.11 |
| GCCGAGCAAUAUUACGUCCC | -0.316 ± 0.14 | -0.826 ± 0.22 |
| GUAAAGCAAUAUUACGGAGG | -3.29 ± 0.37 | -2.45 ± 0.38 |
